We go through six molecules from PMC11189300, “Structure of the human KMN complex and implications for regulation of its assembly” (Nature Structural & Molecular Biology, 2024).

B1: Mis12 complex (Mis12C), full length: MIS12, PMF1, NSL1, DSN1 (complex, human)
chain 1: MSVDPMTYEAQFFGFTPQTCMLRIYIAFQDYLFEVMQAVEQVILKKLDGIPDCDISPVQIRKCTEKFLCFMKGHFDNLFSKMEQLFLQLILRIPSNILLPEDKCKETPYSEEDFQHLQKEIEQLQEKYKTELCTKQALLAELEEQKIVQAKLKQTLTFFDELHNVGRDHGTSDFRESLVSLVQNSRKLQNIRDNVEKESKRLKIS
chain 2: MAEASSANLGSGCEEKRHEGSSSESVPPGTTISRVKLLDTMVDTFLQKLVAAGSYQRFTDCYKCFYQLQPAMTQQIYDKFIAQLQTSIREEISDIKEEGNLEAVLNALDKIVEEGKVRKEPAWRPSGIPEKDLHSVMAPYFLQQRDTLRRHVQKQEAENQQLADAVLAGRRQVEELQLQVQAQQQAWQALHREQRELVAVLREPE
chain 3: MAGSPELVVLDPPWDKELAAGTESQALVSATPREDFRVRCTSKRAVTEMLQLCGRFVQKLGDALPEEIREPALRDAQWTFESAVQENISINGQAWQEASDNCFMDSDIKVLEDQFDEIIVDIATKRKQYPRKILECVIKTIKAKQEILKQYHPVVHPLDLKYDPDPAPHMENLKCRGETVAKEISEAMKSLPALIEQGEGFSQVLRMQPVIHLQRIHQEVFSSCHRKPDAKPENFITQIETTPTETASRKTSDMVLKRKQTKDCPQRKWYPLRPKKINLDT
chain 4: MTSVTRSEIIDEKGPVMSKTHDHQLESSLSPVEVFAKTSASLEMNQGVSEERIHLGSSPKKGGNCDLSHQERLQSKSLHLSPQEQSASYQDRRQSWRRASMKETNRRKSLHPIHQGITELSRSISVDLAESKRLGCLLLSSFQFSIQKLEPFLRDTKGFSLESFRAKASSLSEELKHFADGLETDGTLQKCFEDSNGKASDFSLEASVAEMKEYITKFSLERQTWDQLLLHYQQEAKEILSRGSTEAKITEVKVEPMTYLGSSQNEVLNTKPDYQKILQNQSKVFDCMELVMDELQGSVKQLQAFMDESTQCFQKVSVQLGKRSMQQLDPSPARKLLKLQLQNPPAIHGSGSGSCQ
notes: MIS12, human, subunit of the Mis12 complex; PMF1, human, subunit of the Mis12 complex; NSL1, human, subunit of the Mis12 complex; DSN1, human, subunit of the Mis12 complex (DSN1^SORT-HIS); In BLI one partner was biotinylated by sortase (GGGG-biotin peptide); also called Mis12C^WT; wild-type Mis12C; source: Tnao38 insect cells (baculovirus from pBIG1A), purified (Talon, SEC); copies: + + +

Conditions in all cases: both partners purified
Assay [1] has as its target T1, Ndc80 complex (Ndc80C): NDC80^HEC1, NUF2, SPC24, SPC25 (human, UniProt O14777 1-642; Q9BZD4 1-464; Q8NBT2 1-197; Q9HBM1 1-224).
T1 construct: NDC80 (HEC1), human; NUF2, human; SPC24, human; SPC25, human; also called complete Ndc80C; copies: + + +
Nature of the assay: BLI; Octet SA biosensors loaded with the biotinylated ligand, analyte at different concentrations; 25 °C; 50 mM HEPES pH 8.0, 150 mM NaCl, 2 mM TCEP, 0.05% Tween-20; which partner was loaded is not given.

The target of assay [2] is B1. Nature of the assay: ITC; PEAQ-ITC; 50 mM HEPES pH 8.0, 150 mM NaCl, 1 mM TCEP; 19 injections; one-site binding fit.
Assay [3] deals with B1. Nature of the assay: cryo-EM structure; eight-subunit KMN (full-length Mis12C, SPC24 109–197/SPC25 92–224, ZWINT, KNL1 2,021–2,342), 0.3 mg/ml with 0.003% Triton; reconstruction at 4.5 Å; model fitted from known structures and AF2 predictions and refined against the map.
The target of assay [4] is T2, DSN1 (subunit of Mis12C in the KMN structure) (human, UniProt Q9H410 1-356).
T2 construct: DSN1, human; also called DSN1^SORT-HIS; source: Tnao38 insect cells (baculovirus), co-expressed in Mis12C, purified (Talon, SEC)
T2 sequence (looked up): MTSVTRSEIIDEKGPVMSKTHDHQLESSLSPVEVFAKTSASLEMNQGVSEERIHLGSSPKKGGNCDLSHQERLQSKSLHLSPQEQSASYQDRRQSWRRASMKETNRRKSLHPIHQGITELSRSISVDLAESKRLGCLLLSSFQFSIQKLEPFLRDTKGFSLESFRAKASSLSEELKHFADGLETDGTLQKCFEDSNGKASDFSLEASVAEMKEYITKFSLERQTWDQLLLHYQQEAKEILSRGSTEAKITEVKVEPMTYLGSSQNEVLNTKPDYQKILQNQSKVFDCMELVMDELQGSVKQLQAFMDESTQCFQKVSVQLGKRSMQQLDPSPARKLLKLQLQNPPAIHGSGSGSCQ
The assay is described as above.

T1 sequence (O14777 whole entry, chain 1 of 2): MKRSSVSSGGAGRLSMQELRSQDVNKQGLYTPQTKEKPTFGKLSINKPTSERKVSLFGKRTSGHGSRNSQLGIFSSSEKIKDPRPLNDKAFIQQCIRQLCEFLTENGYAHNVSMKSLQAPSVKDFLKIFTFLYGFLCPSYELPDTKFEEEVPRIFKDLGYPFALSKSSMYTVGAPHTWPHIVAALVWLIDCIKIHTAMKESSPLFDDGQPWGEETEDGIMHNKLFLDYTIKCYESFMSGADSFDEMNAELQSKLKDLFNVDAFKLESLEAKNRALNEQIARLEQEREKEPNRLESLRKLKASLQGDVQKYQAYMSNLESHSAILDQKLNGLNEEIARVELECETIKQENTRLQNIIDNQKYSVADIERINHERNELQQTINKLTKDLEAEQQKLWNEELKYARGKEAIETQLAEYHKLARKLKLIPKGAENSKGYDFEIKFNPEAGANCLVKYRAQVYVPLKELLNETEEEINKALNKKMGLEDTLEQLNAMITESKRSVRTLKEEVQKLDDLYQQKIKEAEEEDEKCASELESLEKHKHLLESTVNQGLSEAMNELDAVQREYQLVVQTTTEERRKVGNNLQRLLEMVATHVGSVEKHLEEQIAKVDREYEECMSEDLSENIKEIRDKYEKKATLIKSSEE
T1 sequence (Q9BZD4 whole entry, chain 2 of 2): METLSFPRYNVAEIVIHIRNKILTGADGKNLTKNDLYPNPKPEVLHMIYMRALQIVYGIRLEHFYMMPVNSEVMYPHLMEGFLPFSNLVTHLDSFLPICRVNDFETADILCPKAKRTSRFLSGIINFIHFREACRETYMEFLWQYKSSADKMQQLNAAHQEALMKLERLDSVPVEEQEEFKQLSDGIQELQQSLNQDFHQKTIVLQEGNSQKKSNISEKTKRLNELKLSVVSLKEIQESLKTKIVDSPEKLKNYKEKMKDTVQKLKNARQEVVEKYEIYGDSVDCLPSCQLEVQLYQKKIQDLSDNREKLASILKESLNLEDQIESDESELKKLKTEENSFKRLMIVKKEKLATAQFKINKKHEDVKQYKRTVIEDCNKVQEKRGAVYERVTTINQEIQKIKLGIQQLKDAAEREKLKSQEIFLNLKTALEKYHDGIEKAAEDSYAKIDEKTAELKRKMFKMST

Take B1: the Kd in assay [1] was around 6 nM.

B2: Mis12C with KNL1_(2,026–2,342) bound (complex, human)
chain 1: MSVDPMTYEAQFFGFTPQTCMLRIYIAFQDYLFEVMQAVEQVILKKLDGIPDCDISPVQIRKCTEKFLCFMKGHFDNLFSKMEQLFLQLILRIPSNILLPEDKCKETPYSEEDFQHLQKEIEQLQEKYKTELCTKQALLAELEEQKIVQAKLKQTLTFFDELHNVGRDHGTSDFRESLVSLVQNSRKLQNIRDNVEKESKRLKIS
chain 2: MAEASSANLGSGCEEKRHEGSSSESVPPGTTISRVKLLDTMVDTFLQKLVAAGSYQRFTDCYKCFYQLQPAMTQQIYDKFIAQLQTSIREEISDIKEEGNLEAVLNALDKIVEEGKVRKEPAWRPSGIPEKDLHSVMAPYFLQQRDTLRRHVQKQEAENQQLADAVLAGRRQVEELQLQVQAQQQAWQALHREQRELVAVLREPE
chain 3: MAGSPELVVLDPPWDKELAAGTESQALVSATPREDFRVRCTSKRAVTEMLQLCGRFVQKLGDALPEEIREPALRDAQWTFESAVQENISINGQAWQEASDNCFMDSDIKVLEDQFDEIIVDIATKRKQYPRKILECVIKTIKAKQEILKQYHPVVHPLDLKYDPDPAPHMENLKCRGETVAKEISEAMKSLPALIEQGEGFSQVLRMQPVIHLQRIHQEVFSSCHRKPDAKPENFITQIETTPTETASRKTSDMVLKRKQTKDCPQRKWYPLRPKKINLDT
chain 4: MTSVTRSEIIDEKGPVMSKTHDHQLESSLSPVEVFAKTSASLEMNQGVSEERIHLGSSPKKGGNCDLSHQERLQSKSLHLSPQEQSASYQDRRQSWRRASMKETNRRKSLHPIHQGITELSRSISVDLAESKRLGCLLLSSFQFSIQKLEPFLRDTKGFSLESFRAKASSLSEELKHFADGLETDGTLQKCFEDSNGKASDFSLEASVAEMKEYITKFSLERQTWDQLLLHYQQEAKEILSRGSTEAKITEVKVEPMTYLGSSQNEVLNTKPDYQKILQNQSKVFDCMELVMDELQGSVKQLQAFMDESTQCFQKVSVQLGKRSMQQLDPSPARKLLKLQLQNPPAIHGSGSGSCQ
chain 5: SAQNEREKLQIKIDEMDKILKKIDNCLTEMETETKNLEDEEKNNPVEEWDSEMRAAEKELEQLKTEEEELQRNLLELEVQKEQTLAQIDFMQKQRNRTEELLDQLSLSEWDVVEWSDDQAVFTFVYDTIQLTITFEESVVGFPFLDKRYRKIVDVNFQSLLDEDQAPPSSLLVHKLIFQYVEEKESWKKTCTTQHQLPKMLEEFSLVVHHCRLLGEEIEYLKRWGPNYNLMNIDINNNELRLLFSSSAAFAKFEITLFLSAYYPSVPLPSTIQNHVGNTSQDDIATILSKVPLENNYLKNVVKQIYQDLFQDCHFYH
notes: MIS12, human; PMF1, human; NSL1, human; DSN1, human; numbering of isoform 1 of the CASC5 gene; also called Mis12C + KNL1; source: Mis12C: Tnao38 insect cells, purified; KNL1: E. coli BL21(DE3)-Codon-plus-RIPL, purified; copies: + + + +
In assay [1], B2 returned a Kd of around 1 nM.

B3: SPC24/SPC25^L154A-L176A (complex, human)
chain 1: MAAFRDIEEVSQGLLSLLGANRAEAQQRRLLGRHEQVVERLLETQDGAEKQLREILTMEKEVAQSLLNAKEQVHQGGVELQQLEAGLQEAGEEDTRLKASLLQLTRELEELKEIEADLERQEKEVDEDTTVTIPSAVYVAQLYHQVSKIEWDYECEPGMVKGIHHGPSVAQPIHLDSTQLSRKFISDYLWSLVDTEW
chain 2: MVEDELALFDKSINEFWNKFKSTDTSCQMAGLRDTYKDSIKAFAEKLSVKLKEEERMVEMFLEYQNQISRQNKLIQEKKDNLLKLIAEVKGKKQELEVLTANIQDLKEEYSRKKETISTANKANAERLKRLQKSADLYKDRLGLEIRKIYGEKAQFIFTNIDPKNPESPFMFSLHANEARDYEVSDSAPHLEGLAEFQENVRKTNNFSAFLANVRKAFTATVYN
notes: SPC24, human; SPC25, human, L154A and L176A; limits not restated, likely full length; GST cleaved off with 3C protease; also called SPC^M2; source: E. coli BL21(DE3)-codon-plus-RIPL, purified (glutathione-agarose, 3C protease, SEC)
For the molecule B3, the “fold reduction of binding affinity against the wild-type pair” value in assay [2] was around 27 fold.

B4: SPC24^Y138A/SPC25 (complex, human)
chain 1: MAAFRDIEEVSQGLLSLLGANRAEAQQRRLLGRHEQVVERLLETQDGAEKQLREILTMEKEVAQSLLNAKEQVHQGGVELQQLEAGLQEAGEEDTRLKASLLQLTRELEELKEIEADLERQEKEVDEDTTVTIPSAVAVAQLYHQVSKIEWDYECEPGMVKGIHHGPSVAQPIHLDSTQLSRKFISDYLWSLVDTEW
chain 2: MVEDELALFDKSINEFWNKFKSTDTSCQMAGLRDTYKDSIKAFAEKLSVKLKEEERMVEMFLEYQNQISRQNKLIQEKKDNLLKLIAEVKGKKQELEVLTANIQDLKEEYSRKKETISTANKANAERLKRLQKSADLYKDRLGLEIRKIYGEKLQFIFTNIDPKNPESPFMFSLHLNEARDYEVSDSAPHLEGLAEFQENVRKTNNFSAFLANVRKAFTATVYN
notes: SPC24, human, Y138A; SPC25, human; limits not restated, likely full length; GST cleaved off with 3C protease; also called SPC^M1; source: E. coli BL21(DE3)-codon-plus-RIPL, purified (glutathione-agarose, 3C protease, SEC)
On to B4, for which the “fold reduction of binding affinity against the wild-type pair” value in assay [2] is around 5 fold.

B5: KNL1 residues 2,021–2,342 (domain or fragment, human, UniProt Q8NG31 2021-2342, looked up)
chain: GKLVQSAQNEREKLQIKIDEMDKILKKIDNCLTEMETETKNLEDEEKNNPVEEWDSEMRAAEKELEQLKTEEEELQRNLLELEVQKEQTLAQIDFMQKQRNRTEELLDQLSLSEWDVVEWSDDQAVFTFVYDTIQLTITFEESVVGFPFLDKRYRKIVDVNFQSLLDEDQAPPSSLLVHKLIFQYVEEKESWKKTCTTQHQLPKMLEEFSLVVHHCRLLGEEIEYLKRWGPNYNLMNIDINNNELRLLFSSSAAFAKFEITLFLSAYYPSVPLPSTIQNHVGNTSQDDIATILSKVPLENNYLKNVVKQIYQDLFQDCHFYH
notes: KNL1 (CASC5), human, C-terminal region, residues 2,021–2,342; numbering of isoform 1 of the CASC5 gene; also called KNL1_(2,021–2,342); Knl1_(2,021–2,342); source: E. coli BL21(DE3)-Codon-plus-RIPL, purified (glutathione-agarose, TEV cleavage, SEC)
With B5, the binding result in assay [3] and in assay [4] was “binds” in each case.

B6: SPC25_(92–224) (domain or fragment, human, UniProt Q9HBM1 92-224, looked up)
chain: KKQELEVLTANIQDLKEEYSRKKETISTANKANAERLKRLQKSADLYKDRLGLEIRKIYGEKLQFIFTNIDPKNPESPFMFSLHLNEARDYEVSDSAPHLEGLAEFQENVRKTNNFSAFLANVRKAFTATVYN
notes: SPC25, human, residues 92–224 (RWD domain); source: E. coli BL21(DE3)-codon-plus-RIPL, co-purified with SPC24 (glutathione-agarose, 3C protease, SEC)
Consider B6, for which, in assay [4], the binding result is given as “binds”.
